Measured values: patent US20250129148A1 (ONCOONE RESEARCH AND DEVELOPMENT, published 2025)
Positions count from the first letter of the chain named. Values belong to the binder of their own block, whether it stands above or below them.

Tests used:
[1] = target: T1, oxMIF (recombinant human MIF immobilized into ELISA plates, transforming MIF to oxMIF) (human, UniProt P14174 2-115); assay: ELISA on immobilized MIF (oxMIF); EC50 of 4-parameter fit given as apparent KD
T1 construct: Oxidised conformational isoform produced by coating the plate at 1 ug/ml in PBS overnight; also called immobilized MIF (oxMIF); immobilized oxMIF
Description: (§1) Recombinant human MIF diluted in PBS at 1 μg/ml was immobilized into ELISA plates overnight at 4° C. (transforming MIF to oxMIF according to Thiele et al., 2015). After blocking, serial dilutions of anti-oxMIF antibodies were added to the plates. Finally, bound antibodies were detected using a Goat anti-human IgG (Fc)-HRP conjugate and tetramethylbenzidine (TMB) as substrate. The chromogenic reaction was stopped with 3M H₂SO₄ and OD was measured at 450 nm. Data from different experiments were normalized to the maximal OD of the anti-oxMIF antibody C0008 (=100%) of the respective experiment and EC₅₀ values were determined by 4-parameter fit using GraphPad Prism (and the mean+/−SEM of two experiments is shown).
Anti-oxMIF antibodies were detected by an anti-human-IgG (Fc)-HRP conjugate, C0008 was used as reference antibody. EC₅₀ values were determined by sigmoidal, 4-parameter equation using GraphPad Prism (mean+/−SEM of two experiments is shown)

[2] = target: T1, oxMIF (recombinant human MIF …); assay: ELISA on immobilized MIF (oxMIF), 4-parameter fit
Description: as §1
Materials and Methods: Recombinant human MIF diluted in PBS at 1 μg/ml was immobilized into ELISA plates overnight at 4° C. (transforming MIF to oxMIF according to Thiele et al., 2015). After blocking, serial dilutions of antibodies were added to the plates, and ELISA was performed as described in the Example 3.

T1 sequence (P14174 2-115 limits assumed): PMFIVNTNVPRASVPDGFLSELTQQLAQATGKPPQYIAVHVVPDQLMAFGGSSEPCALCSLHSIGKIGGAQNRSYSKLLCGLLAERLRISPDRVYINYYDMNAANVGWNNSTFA

B1: C0008 (control/reference anti-oxMIF antibody) (antibody, human IgG1, kappa, V domains shown)
VH: EVQLLESGGGLVQPGGSLRLSCAASGFTFSIYSMNWVRQAPGKGLEWVSSIGSSGGTTYYADSVKGRFTISRDNSKNTLYLQMNSLRAEDTAVYYCAGSQWLYGMDVWGQGTTVTVSS
VL: DIQMTQSPSSLSASVGDRVTITCRSSQRIMTYLNWYQQKPGKAPKLLIFVASHSQSGVPSRFRGSGSETDFTLTISGLQPEDSATYYCQQSFWTPLTFGGGTKVEIKR
notes: Human IgG1 with wt Fc; also called control antibody
Kd [1]: 0.19 nM | EC50 [2]: 0.158 nM

B3: C0115 (Fc silenced anti-oxMIF antibody) (antibody, human IgG1, kappa, L234A L235A, V domains shown)
VH: B1 VH with L5Q, W101Y
VL: B1 VL with F49Y, A51G, W93F
Kd [1]: 0.28 nM

The remaining lines, values ahead:

Kd [1]: 0.26 nM
B2: C0118 (Fc silenced anti-oxMIF antibody) (antibody, human IgG1, kappa, L234A L235A, V domains shown)
VH: B1 VH with L5Q, W101Y
VL: B1 VL with M30L, F49Y, A51G, P80S, W93F

EC50 [2]: 2.51 nM
B4: C0132 (Fc silenced anti-oxMIF x anti-HSG bispecific antibody, Fab/scFv-Fc) (bispecific antibody, human IgG1, kappa, L234A L235A)
heavy: not shown
chain: EVQLVESGGDLVKPGGSLKLSCAASGFTFSIYTMSWLRQTPGKGLEWVATLSGDGDDIYYPDSVKGRFTISRDNAKNSLYLQMNSLRAEDTALYYCARVRLGDWDFDVWGQGTTVSVSSGGSGGSGGSGGSGGSDIVMTQSPSSLAVSPGERVTLTCKSSQSLFNSRTRKNYLGWYQQKPGQSPKLLIYWASTRESGVPDRFSGSGSGTDFTLTINSLQAEDVAVYYCTQVYYLCTFGAGTKLELKGGGGSDKTHTCPPCPAPEAAGGPSVFLFPPKPKDTLMISRTPEVTCVVVDVSHEDPEVKFNWYVDGVEVHNAKTKPREEQYNSTYRVVSVLTVLHQDWLNGKEYKCKVSNKALPAPIEKTISKAKGQPREPQVCTLPPSRDELTKNQVSLSCAVKGFYPSDIAVEWESNGQPENNYKTTPPVLDSDGSFFLVSKLTVDKSRWQQGNVFSCSVMHEALHNHYTQKSLSLSPG
light: DIQMTQSPSSLSASVGDRVTITCRSSQRIMTYLNWYQQKPGKAPKLLIYVGSHSQSGVPSRFRGSGSETDFTLTISGLQPEDSATYYCQQSFFTPLTFGGGTKVEIKRTVAAPSVFIFPPSDEQLKSGTASVVCLLNNFYPREAKVQWKVDNALQSGNSQESVTEQDSKDSTYSLSSTLTLSKADYEKHKVYACEVTHQGLSSPVTKSFNRGEC
notes: One anti-oxMIF arm only; also called bsMab C0132

EC50 [2]: 0.242 nM
B5: C0133 (Fc silenced anti-oxMIF x anti-HSG bispecific antibody, Fab/Fab-scFv-Fc) (bispecific antibody, human IgG1, kappa, L234A L235A)
heavy: not shown
chain: EVQLQESGGGLVQPGGSLRLSCAASGFTFSIYSMNWVRQAPGKGLEWVSSIGSSGGTTYYADSVKGRFTISRDNSKNTLYLQMNSLRAEDTAVYYCAGSQYLYGMDVWGQGTTVTVSSASTKGPSVFPLAPSSKSTSGGTAALGCLVKDYFPEPVTVSWNSGALTSGVHTFPAVLQSSGLYSLSSVVTVPSSSLGTQTYICNVNHKPSNTKVDKKVEPKSCGGGGSGGGGSEVQLVESGGDLVKPGGSLKLSCAASGFTFSIYTMSWLRQTPGKGLEWVATLSGDGDDIYYPDSVKGRFTISRDNAKNSLYLQMNSLRAEDTALYYCARVRLGDWDFDVWGQGTTVSVSSGGSGGSGGSGGSGGSDIVMTQSPSSLAVSPGERVTLTCKSSQSLFNSRTRKNYLGWYQQKPGQSPKLLIYWASTRESGVPDRFSGSGSGTDFTLTINSLQAEDVAVYYCTQVYYLCTFGAGTKLELKGGGGSGGGGSKTHTCPPCPAPEAAGGPSVFLFPPKPKDTLMISRTPEVTCVVVDVSHEDPEVKFNWYVDGVEVHNAKTKPREEQYNSTYRVVSVLTVLHQDWLNGKEYKCKVSNKALPAPIEKTISKAKGQPREPQVCTLPPSRDELTKNQVSLSCAVKGFYPSDIAVEWESNGQPENNYKTTPPVLDSDGSFFLVSKLTVDKSRWQQGNVFSCSVMHEALHNHYTQKSLSLSPG
light: B4 light
notes: also called bsMab C0133
